Data set [1] concerns the target MazF-mt9 (Mycobacterium tuberculosis). As to the kind of experiment: ITC.
The data set “crystal structure” deals with the molecule itself. The data set is described as follows: crystal structure.

We go through five molecules from article doi:10.1101/432989 (bioRxiv, 2018).

B1: MazE-mt9 (natural protein)
chain: MSTSTTIRVSTQTRDRLAAQARERGISMSALLTELAAQAERQAIFRAEREASHAETTTQAVRDEDREWEGTVGDGLG
In the case of B1, in data set [1], the Kd (commonly the constant that tells how readily two partners part at equilibrium) stood at 17.5 nM. Further, in the data set “crystal structure”, the binding result is on record as “binds”.

B2: MazE-mt9 R46A-E48A-D74A triple mutant (natural protein)
chain: MSTSTTIRVSTQTRDRLAAQARERGISMSALLTELAAQAERQAIFAAAREASHAETTTQAVRDEDREWEGTVGAGLG
B2 showed a fold increase of KD against WT MazE-mt9 in data set [1] of 8 fold.

B3: MazE-mt9 D74A mutant (natural protein)
chain: MSTSTTIRVSTQTRDRLAAQARERGISMSALLTELAAQAERQAIFRAEREASHAETTTQAVRDEDREWEGTVGAGLG
For the molecule B3, in data set [1], the fold increase of KD against WT MazE-mt9 came to 2 fold.

B4: MazE-mt1 (natural protein)
chain: MKLSVSLSDDDVAILDAYVKRAGLPSRSAGLQHAIRVLRYPTLEDDYANAWQEWSAAGDTDAWEQTVGDGVGDAPR
Turning to B4, the Kd in data set [1] came to 59.3 nM.

B5: MazE-mt1 D69A mutant (natural protein)
chain: MKLSVSLSDDDVAILDAYVKRAGLPSRSAGLQHAIRVLRYPTLEDDYANAWQEWSAAGDTDAWEQTVGAGVGDAPR
With B5, the fold weakening of affinity against WT MazE-mt1 in data set [1] worked out at 5.3 fold.
